Reference: publication PMC8027947, “Nucleoside Metabolism Is Induced in Common Bean During Early Seedling Development” (Frontiers in Plant Science, 2021)

What was measured:
[1] = substrate: O=c1[nH]c(=O)c2ncn([C@@H]3O[C@H](CO)[C@@H](O)[C@H]3O)c2[nH]1; experiment: HPLC of nucleoside hydrolysis, Michaelis-Menten; type: biochemical, Phaseolus vulgaris; conditions: 50 mM Tris-HCl pH 7.5, 1 mM DTT, 40 °C, apparent Km
Description: (§1) HPLC of nucleoside hydrolysis, Michaelis-Menten on PvNSH2

[2] = substrate: OC[C@H]1O[C@@H](n2cnc3c(O)ncnc32)[C@H](O)[C@@H]1O; experiment: HPLC of nucleoside hydrolysis, Michaelis-Menten; type: biochemical, Phaseolus vulgaris; conditions: 50 mM Tris-HCl pH 7.5, 1 mM DTT, 40 °C, apparent Km
Description: as §1

B1: PvNSH2 (Phaseolus vulgaris) (protein)
chain: MAADTEPKKIIIDTDPGIDDAMAIFVALQSPEIEVIGLTTIYGNVYTTLATRNALHLLEVAGRTDIPVAEGTHLTLTKGTKLRIADFVHGADGLGNQNFPPPKGKPIEESAASFLVRQAKLNPGKVTVVALGPLTNIALAIELDPEFVKNIGQIVILGGAFAVNGNVNPAAEANIFGDPDAADVVFTSGADILALGINVTHQVILTSSDREILASSNGKFAQYLHKILDVYFSYHQESYNTKGVYLHDPTVVLAAVDPSLVTCIEGIVRVQTSGITRGLTLLYNKQKRFGEIHEWSNKPTVKVAVTVDAPRVMKLVMDRLLDS
notes: no N. benthamiana NSH1 detected by MS; locus assigned by print order
Km [1]: 120 ± 20 µM | kcat [1]: 13.2 ± 0.26 s⁻¹ | kcat/Km [1]: 116000 ± 15200 M⁻¹ s⁻¹ | Km [2]: 210 ± 20 µM | kcat [2]: 2.91 ± 0.14 s⁻¹ | kcat/Km [2]: 13700 ± 640 M⁻¹ s⁻¹
